Like-named read-outs stand apart in the source and are kept apart here.

One series has as its system Y537S mutant ERα. Also on record: method as in Toy et al., 2013. The conditions noted are these: breast cancer cells, ref Toy et al., 2013; cited from earlier work.
The test system of the next series is D538G mutant ERα. Also on record: method as in Toy et al., 2013. The conditions noted are these: breast cancer cells, ref Toy et al., 2013; cited from earlier work.
Series [1] deals with Y537S estrogen receptor α ligand-binding domain (ERα amino acids 304–554), 6×His fusion, biotin-labelled at C417 (human) (UniProt P03372). The series can be described thus: FRET or BRET; time-resolved FRET, SRC titration, no ligand (apo): SRC3-fluorescein titrated from 3.2×10^-7 to 3.2×10^-12 M into 1 nM biotinylated ERα LBD on 0.25 nM streptavidin-terbium; 96-well plates. (In general: In BRET a luciferase serves as donor, and the signal depends on an acceptor being close.)

In series [2] the target is D538G estrogen receptor α ligand-binding domain (ERα amino acids 304–554), 6×His fusion, biotin-labelled at C417 (human) (UniProt P03372). The series is described as above.
Series [3] concerns the target wild type estrogen receptor α ligand-binding domain (ERα amino acids 304–554), 6×His fusion, biotin-labelled at C417 (human) (UniProt P03372). The series can be described thus: FRET or BRET; time-resolved FRET, SRC titration, ER pre-saturated with 1 µM E2: SRC3-fluorescein titrated from 3.2×10^-7 to 3.2×10^-12 M into 1 nM biotinylated ERα LBD on 0.25 nM streptavidin-terbium.

In series [4] the target is Y537S estrogen receptor α ligand-binding domain (ERα amino acids 304–554), 6×His fusion, biotin-labelled at C417 (human) (UniProt P03372). Described as above.
Series [5] addresses D538G estrogen receptor α ligand-binding domain (ERα amino acids 304–554), 6×His fusion, biotin-labelled at C417 (human) (UniProt P03372). The series is described as above.
The next series addresses Y537S ERα LBD (Homo sapiens, UniProt P03372, Y537S, form not given). Type of series: binding. The conditions noted are these: for Kd: read-out: SRC-3 NRD Kd. As to the method:
(§1) While bound to the Ni-NTA-agarose resin (Qiagen Inc., Santa Clarita, CA), the ERs were labeled with MAL-dPEG4-biotin (Quanta BioDesign, Powell, OH), site-specifically at C417. The SRC3-NRD construct has 4 cysteines and was labeled non-specifically, also while on the resin, with 5-iodoacetamido fluorescein (Molecular Probes, Invitrogen, Eugene, OR).
(§2) Diffusion-enhanced FRET was determined by a parallel incubation without biotinylated ER-LBD and subtracted as a background signal. […] The data, representing 2–3 replicate experiments, each with duplicate points, were analyzed using GraphPad Prism 4 and are expressed as the EC50 in nM.

For another series, the target named is WT ERα LBD (Homo sapiens, UniProt P03372). Format: binding. As to conditions: for SRC-3 NRD Kd: WT apo (absence of E2). As for the experimental part: as §1, §2
Another series addresses D538G ERα LBD (Homo sapiens, UniProt P03372, D538G, form not given). Format: binding. The conditions noted are these: for Kd: read-out: SRC-3 NRD Kd. As to the method:
as §1, §2

Series [6] deals with the molecule itself. The series can be described thus: crystal structure; D538G ERα LBD with 1 mM E2 and a 2.5-fold molar excess of GRIP peptide; hanging drop, 25% PEG 3,350, 200 mM MgCl2, 100 mM Tris pH 8.5, 1 mM phenylalanine.

For the molecule `CC/C(=C(\c1ccc(O)cc1)c1ccc(OCCN(C)C)cc1)c1ccccc1` [TOT, 4-hydroxytamoxifen], the “ablation of transcriptional activity of the mutant” value in the series with Y537S mutant ERα and in the series with D538G mutant ERα was “could not” throughout.

For orientation: Kd means the free concentration of one partner at which half of the binding sites on the other are occupied at equilibrium, for simple one-to-one binding. On to “steroid receptor coactivator 3 nuclear receptor domain (amino acids 627–829), fluorescein-labelled (from UniProt Q9Y6Q9 627-829) (domain or fragment)”, for which the dissociation constant (Kd) in series [1] worked out at 13.6 nM; in [2], 151 nM; in series [3] it was 2.67 nM; in series [4], 0.59 nM; in series [5] it was 3.65 nM.

With `C[C@]12CC[C@@H]3c4ccc(O)cc4C[C@@H](CCCCCCCCC[S+]([O-])CCCC(F)(F)C(F)(F)F)[C@H]3[C@@H]1CC[C@@H]2O` (stereo partly shown) [fulvestrant], the “ablation of transcriptional activity of the mutant” value with Y537S mutant ERα and in the series with D538G mutant ERα was “completely ablate” throughout.

B1: SRC3 NRD: steroid receptor coactivator 3 nuclear receptor domain, human, amino acids 627–829, fluorescein labeled (protein)
chain: CSSDDRGHSSLTNSPLDSSCKESSVSVTSPSGVSSSTSGGVSSTSNMHGSLLQEKHRILHKLLQNGNSPAEVAKITAEATGKDTSSITSCGDGNVVKQEQLSPKKKENNALLRYLLDRDDPSDALSKELQPQVEGVDNKMSQCTSSTIPSSSQEKDPKIKTETSEEGSGDLDNLDAILGDLTSSDFYNNSISSNGSHLGTKQQ
modifications: 5-iodoacetamido fluorescein on cysteines, non-specific (4 cysteines; an average of 1.8–2 fluorescein molecules attached); left off: His tag (inferred from the labelling on the resin), end not stated,
For B1, the Kd turned out to be 13.6 ± 2 nM with Y537S ERα LBD (Y537S apo (absence of E2)); 0.59 ± 0.1 nM with Y537S ERα LBD (Y537S pre-saturated with E2 (1 µM ligand)); 2.67 ± 0.5 nM with WT ERα LBD (WT saturated with E2 (1 µM ligand), read-out: SRC-3 NRD Kd); 151 ± 20 nM in the series with D538G ERα LBD (D538G apo (absence of E2)); 3.65 ± 0.4 nM with D538G ERα LBD (D538G pre-saturated with E2 (1 µM ligand)). Further, the “SRC3 binding curve plateau, of the maximum” value with Y537S ERα LBD (Y537S, absence of E2) is “approximately 60%”; with D538G ERα LBD (D538G, absence of E2), “approximately 60%”. For the same molecule, the entries for the “SRC-3 NRD Kd” value with WT ERα LBD and in the series with WT ERα LBD (listed as SRC-3 NRD) were “no binding was detected” and “No Recruitment”, respectively.

B2: ERα LBD D538G mutant (crystallisation construct, 6×His-TEV tag removed) (domain or fragment, human)
chain: KRSKKNSLALSLTADQMVSALLDAEPPILYSEYDPTRPFSEASMMGLLTNLADRELVHMINWAKRVPGFVDLTLHDQVHLLECAWLEILMIGLVWRSMEHPGKLLFAPNLLLDRNQGKCVEGMVEIFDMLLATSSRFRMMNLQGEEFVCLKSIILLNSGVYTFLSSTLKSLEEKDHIHRVLDKITDTLIHLMAKAGLTLQQQHQRLAQLLLILSHIRHMSNKGMEHLYSMKCKNVVPLYGLLLEMLDAHRLHAPTS
notes: Unresolved residues were not included in the deposited structures; also called apo D538G; D538G-E2; source: E. coli BL21 (DE3), purified (Ni-NTA, TEV cleavage, Resource Q ion exchange)
Turning to B2, the binding result in series [6] is “binds”.

The values are drawn from paper PMC4821807, “Estrogen receptor alpha somatic mutations Y537S and D538G confer breast cancer endocrine resistance by stabilizing the activating function-2 binding conformation” (eLife, 2016).
